The record followed here is publication PMC5840378, “Cytochrome c speeds up caspase cascade activation by blocking 14-3-3ε-dependent Apaf-1 inhibition” (Cell Death & Disease, 2018).

Substitutions are numbered along the chain they refer to.

Experiment in all cases: ITC; Auto-ITC200, 25 °C; 2-μL injections of 300 μM Cc into the cell with 20 μM 14-3-3ε species or peptide; 10 mM sodium phosphate pH 7.4
Conditions in all cases: both partners purified

One test has as its target T1, 14-3-3ε FL S187D (UniProt P62258 1-255, S187D).
T1 construct: 14-3-3ε full length with S187D; source: E. coli BL21 (DE3), purified (Ni Sepharose); mutant obtained from Mutagenex Inc
T1 sequence (looked up): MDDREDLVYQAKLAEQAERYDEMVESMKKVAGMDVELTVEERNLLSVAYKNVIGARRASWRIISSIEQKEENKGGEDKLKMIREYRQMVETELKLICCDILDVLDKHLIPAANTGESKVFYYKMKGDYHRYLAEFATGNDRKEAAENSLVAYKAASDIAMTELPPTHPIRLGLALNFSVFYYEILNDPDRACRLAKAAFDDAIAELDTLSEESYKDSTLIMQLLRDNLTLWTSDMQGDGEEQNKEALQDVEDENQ

The target in test [1] is T2, 14-3-3ε full length (14-3-3ε FL), recombinant (UniProt P62258 1-255).
T2 construct: 14-3-3ε (14-3-3 protein epsilon), full length, cloned NdeI-XhoI into pET-28a; Homodimer by ultracentrifugation and light scattering; The printed cloning primers seem to add a Met before Met1 and a Glu after the last residue; also called 14-3-3ε FL WT; source: E. coli BL21 (DE3), purified (Ni Sepharose)
T2 sequence (looked up): T1 sequence (looked up) with D187S

A further test deals with T3, 14-3-3ε FL E92K (UniProt P62258 1-255, E92K).
T3 construct: 14-3-3ε full length with E92K; source: E. coli BL21 (DE3), purified (Ni Sepharose); mutant obtained from Mutagenex Inc
T3 sequence (looked up): T1 sequence (looked up) with E92K, D187S

The target in test [2] is T4, 14-3-3ε C-terminal peptide (14-3-3ε_(234-255)) (UniProt P62258 234-255).
T4 construct: 14-3-3ε, C-terminal tail, residues 234-255; also called non-acetylated peptide; C-terminal tail of 14-3-3ε; source: bought: Genosphere Biotechnologies (France)
T4 peptide (looked up): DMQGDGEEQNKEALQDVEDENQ

The next test concerns the target T5, 14-3-3ε FL K50E (UniProt P62258 1-255, K50E).
T5 construct: 14-3-3ε full length with K50E; source: E. coli BL21 (DE3), purified (Ni Sepharose); mutant obtained from Mutagenex Inc
T5 sequence (looked up): T1 sequence (looked up) with K50E, D187S

Another test addresses T6, 14-3-3ε FL S59E (UniProt P62258 1-255, S59E).
T6 construct: 14-3-3ε full length with S59E; source: E. coli BL21 (DE3), purified (Ni Sepharose); mutant obtained from Mutagenex Inc
T6 sequence (looked up): T1 sequence (looked up) with S59E, D187S

The target of the next test is T7, 14-3-3ε FL D99K (UniProt P62258 1-255, D99K).
T7 construct: 14-3-3ε full length with D99K; source: E. coli BL21 (DE3), purified (Ni Sepharose); mutant obtained from Mutagenex Inc
T7 sequence (looked up): T1 sequence (looked up) with D99K, D187S

Another test addresses T8, 14-3-3ε FL D21K (UniProt P62258 1-255, D21K).
T8 construct: 14-3-3ε full length with D21K; source: E. coli BL21 (DE3), purified (Ni Sepharose); mutant obtained from Mutagenex Inc
T8 sequence (looked up): T1 sequence (looked up) with D21K, D187S

B1: cytochrome c (Cc), recombinant (natural protein)
chain: not shown
modifications: heme group; 15N-labelled for the 2D NMR titrations
notes: Met80 is M81 in P99999); Reduced with sodium ascorbate in the NMR experiments; also called hemeprotein; reduced Cc; source: E. coli BL21 (DE3), purified (ionic chromatography, carboxy-methylcellulose)
Usually Kd stands for a measure of binding affinity in units of concentration. As a reminder, the stoichiometry N is a count of units in the complex or per binding partner. Take B1: the binding result with 14-3-3ε FL S187D and in the test with 14-3-3ε FL D99K was “binds” each time. For the same molecule, in test [1], the Kd is 2.3 µM. For the same molecule, the “stoichiometry N” value was 2 Cc per 14-3-3ε FL homodimer in test [1]; 1 with 14-3-3ε FL E92K; 1 in test [2]; 1 in the test with 14-3-3ε FL K50E; 1 in the test with 14-3-3ε FL S59E; 1 with 14-3-3ε FL D21K.
